Experimental data from patent US20050089521A1.

Columns and labels:
[1] = target: rat trkC (on E12 rat trigeminal neurons) (rat) (UniProt Q03351); assay: cell-based or functional assay
[2] = target: mouse trkC (on E11 mouse trigeminal neurons) (mouse) (UniProt Q6VNS1); assay: cell-based or functional assay
Sequence of mouse trkC (on E11 mouse trigeminal neurons) (mouse) (Q6VNS1 32-825): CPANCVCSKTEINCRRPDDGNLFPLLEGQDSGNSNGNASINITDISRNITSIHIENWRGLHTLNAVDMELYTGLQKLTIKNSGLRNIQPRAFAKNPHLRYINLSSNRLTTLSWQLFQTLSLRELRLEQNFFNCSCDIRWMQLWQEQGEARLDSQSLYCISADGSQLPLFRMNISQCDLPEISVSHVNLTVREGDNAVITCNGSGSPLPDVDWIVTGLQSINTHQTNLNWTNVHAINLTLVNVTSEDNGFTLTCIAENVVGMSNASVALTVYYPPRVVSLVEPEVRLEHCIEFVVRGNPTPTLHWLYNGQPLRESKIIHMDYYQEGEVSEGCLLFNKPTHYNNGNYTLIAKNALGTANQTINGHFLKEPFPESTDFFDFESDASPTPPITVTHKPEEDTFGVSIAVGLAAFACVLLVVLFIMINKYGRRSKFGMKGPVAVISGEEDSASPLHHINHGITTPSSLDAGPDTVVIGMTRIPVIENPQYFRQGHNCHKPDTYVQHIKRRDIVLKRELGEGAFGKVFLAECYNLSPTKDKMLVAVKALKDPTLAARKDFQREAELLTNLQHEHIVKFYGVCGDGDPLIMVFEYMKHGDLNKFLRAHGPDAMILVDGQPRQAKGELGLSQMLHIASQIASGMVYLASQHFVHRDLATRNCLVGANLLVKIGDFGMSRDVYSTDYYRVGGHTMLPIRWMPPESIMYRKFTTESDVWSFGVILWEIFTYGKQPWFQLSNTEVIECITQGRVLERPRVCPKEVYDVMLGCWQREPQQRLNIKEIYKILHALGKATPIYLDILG

Sequence of rat trkC (on E12 rat trigeminal neurons) (rat) (Q03351 32-864): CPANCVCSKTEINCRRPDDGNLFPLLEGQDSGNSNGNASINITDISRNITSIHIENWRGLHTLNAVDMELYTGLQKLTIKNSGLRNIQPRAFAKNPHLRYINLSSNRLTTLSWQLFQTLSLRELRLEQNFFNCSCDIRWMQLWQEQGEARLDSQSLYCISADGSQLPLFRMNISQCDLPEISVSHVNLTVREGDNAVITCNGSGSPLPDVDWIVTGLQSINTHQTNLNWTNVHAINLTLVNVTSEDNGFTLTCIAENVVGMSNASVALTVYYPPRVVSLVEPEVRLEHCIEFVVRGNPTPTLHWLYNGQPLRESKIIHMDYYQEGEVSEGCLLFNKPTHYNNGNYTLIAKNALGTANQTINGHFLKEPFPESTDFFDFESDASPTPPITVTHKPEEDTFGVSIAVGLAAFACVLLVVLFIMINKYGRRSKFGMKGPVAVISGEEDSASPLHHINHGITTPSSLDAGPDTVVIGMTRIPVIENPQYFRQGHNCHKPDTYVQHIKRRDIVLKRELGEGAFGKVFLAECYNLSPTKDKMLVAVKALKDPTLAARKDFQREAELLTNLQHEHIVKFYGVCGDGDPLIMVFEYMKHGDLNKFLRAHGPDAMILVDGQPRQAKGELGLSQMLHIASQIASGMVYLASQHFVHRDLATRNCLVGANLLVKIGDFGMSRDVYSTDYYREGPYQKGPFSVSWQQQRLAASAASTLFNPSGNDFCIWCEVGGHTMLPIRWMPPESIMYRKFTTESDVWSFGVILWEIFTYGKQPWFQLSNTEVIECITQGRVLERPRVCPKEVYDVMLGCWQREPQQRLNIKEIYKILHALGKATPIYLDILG

Q: With neurotrophin-3 (NT-3) (ligand) as the substance, how does the survival of trigeminal neurons after 24 hours in culture [1] read?
A: 0.08 ng/mL

Q: And the survival of trigeminal neurons after 24 hours in culture [2]?
A: 0.08 ng/mL
